Experiment [1] concerns the target T1, SV40 Large T Antigen (T-Ag) (SV40, UniProt P03070 1-708).
T1 construct: also called SV40 T-Ag; recombinant SV40 T-Ag
The experiment is described as follows: co-immunoprecipitation from metabolically labeled AT-2 cardiomyocytes.

The target of experiment [2] is T1, SV40 Large T Antigen (T-Ag). As to the kind of experiment: immune precipitation / Western blot, NIH-3T3 cells co-transfected with CMV-p193myc and CMV-T-Ag. A general note: In western blotting, separated proteins are transferred to a membrane and probed.

The source of these data is patent US20030073236A1 (published 2003).

B1: p193 (mouse p193, full length) (other)
chain: MVGELRYREFRVPLGPGLHAYPDELIRQRVGHNGHPEYQIRWLILRRGDDGDRDSTVDCKAEHILLWMSDDEIYANCHKMLGENGQVIAPSRESTEAGALDKSVLGEMETDVKSLIQRALRQLEECVGTVPPAPLLHTVHVLSAYASIEPLTGIFKDRRVVNLLMHMLSSPDYQIRWSAGRMIQALSSHDAGTRTQILLSLSQQEAIEKHLDFDSRCALLALFAQATLTEHPMSFEGVQLPQVPGRLLFSLVKRYLHVTFLLDRLNGDAGDQGAQNNFSPEELNVGRGRLELEFSMAMGTLISELVQAMRWDGASSRPESSSSSTFQPRPAQFRPYTQRFRRSRRFRPRASFASFNTYALYVRDTLRPGMRVRMLENYEEIAAGDEGQFRQSNDGVPPAQVLWDSTGHTYWVHWHMLEILGFEEDIEDVIDIEELQELGANGALSIVPPSQRWKPITQLFAEPYVVPEEEDREESENLTQAEWWELLFFIRQLSEAERLHIVDLLQDHLEEERVLDYDMLPELTVPVDLAQDLLLSLPQQLEDSALRDLFSCSVYRKYGPEVLVGHLSYPFVPGAQPNLFGANEESEAKDPPLQSASPALQRLVESLGPEGEVLVELEQALGSEAPQETEVKSCLLQLQEQPQPFLALMRSLDTSASNKTLHLTVLRILMQLVNFPEALLLPWHEAMDACVTCLRSPNTDREVLQELIFFLHRLTTTSRDYAVILNQHGARDAISKVLEKHRGKLELAQELRDMVSKCEKHAHLYRKLTTNILGGCIQMVLGQIEDHRRTHRPIQIPFFDVFLRYLCQGSSEEMKKNRYWEKVEVSSNPQRASRLTDRNPKTYWESSGRAGSHFITLHMRPGVIIRQLTLLVAGEDSSYMPAWVVVCGGNSIKSVNKELNTVNVMPSASRVTLLENLTRFWPIIQIRIKRCQQGGINTRIRGLEVLGPKPTFWPVFREQLCRHTRLFYMVRAQAWSQDIAEDRRSLLHLSSRLNGALRHEQNFAERFLPDMEAAQALSKTCWEALVSPLVQNITSPDEDSTSSLGWLLDQYLGCREAAYNPQSRAAAFSSRVRRLTHLLVHVEPREAAPPVVAIPRSKGRNRIHDWSYLITRGLPSSIMKNLTRCWRSVVEEQMNKFLSASWKDDDFVPRYCERYYVLQKSSSELFGPRAAFLLAMRNGCADAVRRLPFLRAAHVKQQFARHIDQRIQGSRMGGARGMEMLAQLQRCLESVLIFSPLEIATTFEHYYQHYMADRLLSVGSSWLEGAVLEQIGPCFPSRLPQQMLQSLNVSEELQRQFHVYQLQQLDQELLKLEDTEKKIQVAHEDSGREDKSKKEEAIGEAAAVAMAEEEDQGKKEEGEEEGEGEDEEEERYYKGTMPEVCVLVVTPRFWPVASVCQMLNPATCLPAYLRGTINHYTNFYSKSQSRSSLEKEPQRRLQWTWQGRAEVQFGGQILHVSTVQMWLLLHLNNQKEVSVESLQAISELPPDVLHRAIGPLTSSRGPLDLQEQKNVPGGVLKIRDDSEEPRPRRGNVWLIPPQTYLQAEAEEGRNMEKRRNLLNCLVVRILKAHGDEGLHVDRLVYLVLEAWEKGPCPARGLVSSLGRGATCRSSDVLSCILHLLVKGTLRRHDDRPQVLYYAVPVTVMEPHMESLNPGSAGPNPPLTFHTLQIRSRGVPYASCTDNHTFSTFR
modifications: 35S-methionine labelled in the immune precipitation experiments
notes: also called in vitro translated p193
Turning to B1, the binding result in experiment [1] was “binds”.

B2: p193myc (p193 protein harboring a C-terminal myc epitope tag, from CMV-p193myc) (other, not shown: small tags and cut ends)
chain: MVGELRYREFRVPLGPGLHAYPDELIRQRVGHNGHPEYQIRWLILRRGDDGDRDSTVDCKAEHILLWMSDDEIYANCHKMLGENGQVIAPSRESTEAGALDKSVLGEMETDVKSLIQRALRQLEECVGTVPPAPLLHTVHVLSAYASIEPLTGIFKDRRVVNLLMHMLSSPDYQIRWSAGRMIQALSSHDAGTRTQILLSLSQQEAIEKHLDFDSRCALLALFAQATLTEHPMSFEGVQLPQVPGRLLFSLVKRYLHVTFLLDRLNGDAGDQGAQNNFSPEELNVGRGRLELEFSMAMGTLISELVQAMRWDGASSRPESSSSSTFQPRPAQFRPYTQRFRRSRRFRPRASFASFNTYALYVRDTLRPGMRVRMLENYEEIAAGDEGQFRQSNDGVPPAQVLWDSTGHTYWVHWHMLEILGFEEDIEDVIDIEELQELGANGALSIVPPSQRWKPITQLFAEPYVVPEEEDREESENLTQAEWWELLFFIRQLSEAERLHIVDLLQDHLEEERVLDYDMLPELTVPVDLAQDLLLSLPQQLEDSALRDLFSCSVYRKYGPEVLVGHLSYPFVPGAQPNLFGANEESEAKDPPLQSASPALQRLVESLGPEGEVLVELEQALGSEAPQETEVKSCLLQLQEQPQPFLALMRSLDTSASNKTLHLTVLRILMQLVNFPEALLLPWHEAMDACVTCLRSPNTDREVLQELIFFLHRLTTTSRDYAVILNQHGARDAISKVLEKHRGKLELAQELRDMVSKCEKHAHLYRKLTTNILGGCIQMVLGQIEDHRRTHRPIQIPFFDVFLRYLCQGSSEEMKKNRYWEKVEVSSNPQRASRLTDRNPKTYWESSGRAGSHFITLHMRPGVIIRQLTLLVAGEDSSYMPAWVVVCGGNSIKSVNKELNTVNVMPSASRVTLLENLTRFWPIIQIRIKRCQQGGINTRIRGLEVLGPKPTFWPVFREQLCRHTRLFYMVRAQAWSQDIAEDRRSLLHLSSRLNGALRHEQNFAERFLPDMEAAQALSKTCWEALVSPLVQNITSPDEDSTSSLGWLLDQYLGCREAAYNPQSRAAAFSSRVRRLTHLLVHVEPREAAPPVVAIPRSKGRNRIHDWSYLITRGLPSSIMKNLTRCWRSVVEEQMNKFLSASWKDDDFVPRYCERYYVLQKSSSELFGPRAAFLLAMRNGCADAVRRLPFLRAAHVKQQFARHIDQRIQGSRMGGARGMEMLAQLQRCLESVLIFSPLEIATTFEHYYQHYMADRLLSVGSSWLEGAVLEQIGPCFPSRLPQQMLQSLNVSEELQRQFHVYQLQQLDQELLKLEDTEKKIQVAHEDSGREDKSKKEEAIGEAAAVAMAEEEDQGKKEEGEEEGEGEDEEEERYYKGTMPEVCVLVVTPRFWPVASVCQMLNPATCLPAYLRGTINHYTNFYSKSQSRSSLEKEPQRRLQWTWQGRAEVQFGGQILHVSTVQMWLLLHLNNQKEVSVESLQAISELPPDVLHRAIGPLTSSRGPLDLQEQKNVPGGVLKIRDDSEEPRPRRGNVWLIPPQTYLQAEAEEGRNMEKRRNLLNCLVVRILKAHGDEGLHVDRLVYLVLEAWEKGPCPARGLVSSLGRGATCRSSDVLSCILHLLVKGTLRRHDDRPQVLYYAVPVTVMEPHMESLNPGSAGPNPPLTFHTLQIRSRGVPYASCTDNHTFSTFR
notes: Expressed in NIH-3T3 cells co-transfected with CMV-T-Ag; also called CMV-p193myc product
Consider B2, for which the binding result in experiment [2] is recorded as “binds”.
